Source: patent US7205275 (dated 2007)
Where no end group is shown, it is not given here. [ ]: non-standard residue; d: D form. Fc = immunoglobulin Fc domain fused to the peptide (peptibody)

Tests used:
human Ang-1 [1] = target: T1, human Ang-1 (human, UniProt Q15389); experiment: ELISA
T1 chain: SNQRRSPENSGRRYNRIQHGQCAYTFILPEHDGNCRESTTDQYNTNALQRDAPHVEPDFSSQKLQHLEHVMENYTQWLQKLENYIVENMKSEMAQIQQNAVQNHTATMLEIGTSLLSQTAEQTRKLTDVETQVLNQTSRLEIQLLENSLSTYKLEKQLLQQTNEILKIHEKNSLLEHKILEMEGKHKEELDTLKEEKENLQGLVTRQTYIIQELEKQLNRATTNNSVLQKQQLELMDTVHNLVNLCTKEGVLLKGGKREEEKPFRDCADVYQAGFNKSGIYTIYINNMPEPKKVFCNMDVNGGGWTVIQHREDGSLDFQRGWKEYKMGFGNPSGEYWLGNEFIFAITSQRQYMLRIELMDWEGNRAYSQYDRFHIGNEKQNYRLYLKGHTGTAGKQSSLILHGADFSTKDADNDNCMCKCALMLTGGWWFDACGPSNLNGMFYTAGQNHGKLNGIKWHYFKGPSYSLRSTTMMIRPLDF

human Ang-2 [2] = target: T2, human Ang-2 (human, UniProt O15123); experiment: SPR
T2 chain: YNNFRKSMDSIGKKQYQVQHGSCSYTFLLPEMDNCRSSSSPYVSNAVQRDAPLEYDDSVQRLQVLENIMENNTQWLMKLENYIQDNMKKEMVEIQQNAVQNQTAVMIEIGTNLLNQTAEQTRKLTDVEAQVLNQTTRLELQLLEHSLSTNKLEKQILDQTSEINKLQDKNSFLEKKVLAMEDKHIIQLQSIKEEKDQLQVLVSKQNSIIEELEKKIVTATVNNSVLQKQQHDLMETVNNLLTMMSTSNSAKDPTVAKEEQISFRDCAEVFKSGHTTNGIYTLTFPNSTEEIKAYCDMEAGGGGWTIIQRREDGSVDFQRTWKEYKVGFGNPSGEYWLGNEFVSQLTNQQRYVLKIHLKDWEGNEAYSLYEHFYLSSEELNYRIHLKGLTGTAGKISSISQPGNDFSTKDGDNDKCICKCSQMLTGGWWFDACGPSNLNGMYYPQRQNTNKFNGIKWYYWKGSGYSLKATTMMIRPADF

human Ang-1 [3] = target: T1, human Ang-1; experiment: competition ELISA vs Tie-2
mouse Ang-2 [4] = target: T3, mouse Ang-2 (mouse, UniProt O35608); experiment: SPR
T3 chain: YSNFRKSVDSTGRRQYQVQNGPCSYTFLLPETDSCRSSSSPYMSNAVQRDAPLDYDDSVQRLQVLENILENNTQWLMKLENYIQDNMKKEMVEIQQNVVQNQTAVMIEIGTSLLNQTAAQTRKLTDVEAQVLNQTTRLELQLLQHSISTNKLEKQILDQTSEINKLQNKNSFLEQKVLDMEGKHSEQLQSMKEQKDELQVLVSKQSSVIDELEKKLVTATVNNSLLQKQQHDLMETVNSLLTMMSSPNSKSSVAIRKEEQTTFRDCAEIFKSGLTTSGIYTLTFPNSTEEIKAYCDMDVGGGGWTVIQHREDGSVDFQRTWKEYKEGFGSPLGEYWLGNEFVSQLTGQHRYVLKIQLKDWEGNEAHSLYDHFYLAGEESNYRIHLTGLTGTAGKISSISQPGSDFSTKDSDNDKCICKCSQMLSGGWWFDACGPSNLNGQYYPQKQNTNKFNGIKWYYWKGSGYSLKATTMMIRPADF

human Ang-2 [5] = target: T2, human Ang-2; experiment: ELISA
mouse Ang-2 [6] = target: T3, mouse Ang-2; experiment: competition ELISA vs Tie-2
mouse Ang-2 [7] = target: T3, mouse Ang-2; experiment: ELISA
human Ang-2 [8] = target: T2, human Ang-2; experiment: competition ELISA vs Tie-2

- binding result (human Ang-1 [1]): no binding
- Kd (human Ang-2 [2]): 0.67 nM
- IC50 (human Ang-1 [3]): > 1000 nM
- Kd (mouse Ang-2 [4]): 0.6 nM
- EC50 (human Ang-2 [5]): 0.03 nM
- IC50 (mouse Ang-2 [6]): 0.72 nM
- EC50 (mouse Ang-2 [7]): 0.07 nM
- IC50 (human Ang-2 [8]): 0.85 nM
B1: Con4 (N) (peptide)
chain: MGAQQEECEWDPWTCEHMLEGGGGG[Fc]
modifications: not fully specified (bridges); printed as MGAQQEECEWDPWTCEHMLEGGGGG-Fc; cysteine pairing not given here; also: Fc fusion domain at position 26
